In general, Kd refers to the concentration at which binding is half-saturated. Read a high Kd as lower affinity.

From patent EP4248993A1 (Charité - Universitätsmedizin Berlin, dated 2023) come the findings set out here.

The target in test [1] is MERS-CoV RBD Twin-Strep His (wild type, G372-L588) (MERS-CoV). Put plainly: BLI, RBD Twin-Strep His on anti-Penta-His biosensor, global 1:1 fit. (In BLI a coated tip is dipped into the sample, and binding shifts an interference pattern.)
The target is the same in test [2]. Description: ELISA (Figure 6A).
For test [3] the target is unchanged. Put plainly: BLI, RBD Twin-Strep His on anti-Penta-His biosensor, global 1:1 fit. The source holds these as a separate data set.

B1: recombinant human DPP4 with N-terminal 8xHis-tag (hDPP4-N'His) (receptor)
chain: HHHHHHHHGGGSGGGSGGGSDSRKTYTLTDYLKNTYRLKLYSLRWISDHEYLYKQENNILVFNAEYGNSSVFLENSTFDEFGHSINDYSISPDGQFILLEYNYVKQWRHSYTASYDIYDLNKRQLITEERIPNNTQWVTWSPVGHKLAYVWNNDIYVKIEPNLPSYRITWTGKEDIIYNGITDWVYEEEVFSAYSALWWSPNGTFLAYAQFNDTEVPLIEYSFYSDESLQYPKTVRVPYPKAGAVNPTVKFFVVNTDSLSSVTNATSIQITAPASMLIGDHYLCDVTWATQERISLQWLRRIQNYSVMDICDYDESSGRWNCLVARQHIEMSTTGWVGRFRPSEPHFTLDGNSFYKIISNEEGYRHICYFQIDKKDCTFITKGTWEVIGIEALTSDYLYYISNEYKGMPGGRNLYKIQLSDYTKVTCLSCELNPERCQYYSVSFSKEAKYYQLRCSGPGLPLYTLHSSVNDKGLRVLEDNSALDKMLQNVQMPSKKLDFIILNETKFWYQMILPPHFDKSKKYPLLLDVYAGPCSQKADTVFRLNWATYLASTENIIVASFDGRGSGYQGDKIMHAINRRLGTFEVEDQIEAARQFSKMGFVDNKRIAIWGWSYGGYVTSMVLGSGSGVFKCGIAVAPVSRWEYYDSVYTERYMGLPTPEDNLDHYRNSTVMSRAENFKQVEYLLIHGTADDNVHFQQSAQISKALVDVGVDFQAMWYTDEDHGIASSTAHQHIYTHMSHFIKQCFSLP
notes: range 38-766
B1 yielded a dissociation constant Kd in test [1] of 7.8 nM.

B2: recombinant mouse DPP4 (mDPP4) (receptor)
chain: SKDEAAADSRRTYSLADYLKSTFRVKSYSLWWVSDFEYLYKQENNILLLNAEHGNSSIFLENSTFESFGYHSVSPDRLFVLLEYNYVKQWRHSYTASYNIYDVNKRQLITEEKIPNNTQWITWSPEGHKLAYVWKNDIYVKVEPHLPSHRITSTGEENVIYNGITDWVYEEEVFGAYSALWWSPNNTFLAYAQFNDTGVPLIEYSFYSDESLQYPKTVWIPYPKAGAVNPTVKFFIVNIDSLSSSSSAAPIQIPAPASVARGDHYLCDVVWATEERISLQWLRRIQNYSVMAICDYDKINLTWNCPSEQQHVEMSTTGWVGRFRPAEPHFTSDGSSFYKIISDKDGYKHICHFPKDKKDCTFITKGAWEVISIEALTSDYLYYISNQYKEMPGGRNLYKIQLTDHTNVKCLSCDLNPERCQYYAVSFSKEAKYYQLGCWGPGLPLYTLHRSTDHKELRVLEDNSALDRMLQDVQMPSKKLDFIVLNETRFWYQMILPPHFDKSKKYPLLLDVYAGPCSQKADASFRLNWATYLASTENIIVASFDGRGSGYQGDKIMHAINRRLGTLEVEDQIEAARQFVKMGFVDSKRVAIWGWSYGGYVTSMVLGSGSGVFKCGIAVAPVSRWEYYDSVYTERYMGLPIPEDNLDHYRNSTVMSRAEHFKQVEYLLIHGTADDNVHFQQSAQISKALVDAGVDFQAMWYTDEDHGIASSTAHQHIYSHMSHFLQQCFSLH
As to B2, the binding result in test [2] is “no binding”.

B3: recombinant rabbit DPP4 with C-terminal 6xHis-tag (rbDPP4-His) (receptor)
chain: NKGNHEYLHRQEDNILLFNAEYGNSSLFLANITFDEFGHSITDYSVSPDRLFLLLEYNYVKQWRHSYTASYDIYDLNKRQLITEERIPNNTQWITWAPEGHRLAYVWNNDIYVKLEPNLPSQRITWTGKADVIYNGITDWVYEEEVFSAYSALWWSPNGTFLAYAQFNDTGVPLIEYSFYSDEALQYPKTVRIPYPKAGAVNPTVRFFVVNTDSLSSITNATSVQITAPASMLIGDHYLCDVTWVTHERISLQWLRRIQNYSVMDICDYDRSSGRWNCLVARQHIEMSTTGWVGRFRPAEPHFTSDGNSFYKIMSNEEGYKHICYSLIDNQSCTFITRGAWEVIGIEALTSDYLYYISNEYKGMPGGRNLYKIQLTDHTKVTCLSCELKPERCQYYSVSFGKGAKYYQLRCSGPGLPLYTLHSSVNDQELRVLEDNSALDEMLQDVQMPSKTLDFIILNETKFWYQMVLPPHFDKSKKYPLLLEVYAGPCSQRADAIFRLNWATYLASTENIIVASFDGRGSGYQGDKIMHAINRRLGTLEVEDQIEAARQFSKMGFVDNERIAIWGWSYGGYVTSMVLGSGSGVFKCGIAVAPVSRWEYYDSIYTERYMGLPTPEDNLDHYRNSTVMSRAENFKQVEYLLIHGTADDNVHFQQSAQISKALVDAGVDFQAMWYTDEDHGIDSSTAHQHIYTHMSHFIKQCFSLHHHHHH
In turn, B3 yielded a dissociation constant Kd in test [3] of 34.3 nM.
